Test results reported in paper PMC8953949, “Identifying Function Determining Residues in Neuroimmune Semaphorin 4A” (International Journal of Molecular Sciences, 2022).
Residue numbers refer to the chain shown, from its start. Names and notes keep the numbering of the source. One block for each molecule: values may come before it.

How the values were obtained:
Plexin B1 (Homo sapiens) [1] = biological target: Plexin B1 (Homo sapiens) (UniProt O43157); assay: SPR; conditions: cited from earlier work
NRP1 = NRP1 (UniProt O14786); assay: ELISA; LRA ELISA of Sema4A and NRP1 (Supplemental Figure S2)
Sequence of NRP1 (O14786 22-856): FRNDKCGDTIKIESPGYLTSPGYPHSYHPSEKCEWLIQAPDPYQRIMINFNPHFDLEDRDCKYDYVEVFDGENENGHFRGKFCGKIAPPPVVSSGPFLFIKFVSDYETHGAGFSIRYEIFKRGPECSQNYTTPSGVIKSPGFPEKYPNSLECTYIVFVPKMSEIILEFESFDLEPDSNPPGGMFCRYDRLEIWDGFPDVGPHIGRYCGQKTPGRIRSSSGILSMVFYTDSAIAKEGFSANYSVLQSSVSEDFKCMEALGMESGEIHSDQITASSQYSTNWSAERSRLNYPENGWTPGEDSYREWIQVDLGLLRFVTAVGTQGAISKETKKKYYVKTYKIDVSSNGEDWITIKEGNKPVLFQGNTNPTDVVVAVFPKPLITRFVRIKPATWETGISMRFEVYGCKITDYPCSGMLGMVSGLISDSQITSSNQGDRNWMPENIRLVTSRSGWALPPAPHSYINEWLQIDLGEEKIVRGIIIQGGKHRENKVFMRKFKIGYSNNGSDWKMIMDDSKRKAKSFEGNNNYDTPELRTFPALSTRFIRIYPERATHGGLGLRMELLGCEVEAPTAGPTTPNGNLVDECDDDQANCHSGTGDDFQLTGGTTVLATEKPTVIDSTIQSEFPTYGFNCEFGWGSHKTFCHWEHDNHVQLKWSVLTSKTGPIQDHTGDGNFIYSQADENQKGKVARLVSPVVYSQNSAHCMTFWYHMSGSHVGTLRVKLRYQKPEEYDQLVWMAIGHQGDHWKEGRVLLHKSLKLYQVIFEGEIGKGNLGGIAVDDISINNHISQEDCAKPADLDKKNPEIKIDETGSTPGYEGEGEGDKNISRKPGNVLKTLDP

[2] = biological target: recombinant human Plexin B1 with a 6X His tag at C-terminus (human) (UniProt O43157); assay: ELISA; direct ligand-receptor (LRA) ELISA; Plexin B1 (8-10 ug/mL) immobilised on Immulon 2 plates overnight, Sema4 in solution in varying doses from 2 ug/mL; detection by HRP-labelled Abs to tags; fit 'One site-specific binding with Hill slope'
Plexin D1 = Plexin D1 (UniProt Q9Y4D7); assay: SPR; conditions: cited from earlier work
Sequence of Plexin D1 (Q9Y4D7 47-1271): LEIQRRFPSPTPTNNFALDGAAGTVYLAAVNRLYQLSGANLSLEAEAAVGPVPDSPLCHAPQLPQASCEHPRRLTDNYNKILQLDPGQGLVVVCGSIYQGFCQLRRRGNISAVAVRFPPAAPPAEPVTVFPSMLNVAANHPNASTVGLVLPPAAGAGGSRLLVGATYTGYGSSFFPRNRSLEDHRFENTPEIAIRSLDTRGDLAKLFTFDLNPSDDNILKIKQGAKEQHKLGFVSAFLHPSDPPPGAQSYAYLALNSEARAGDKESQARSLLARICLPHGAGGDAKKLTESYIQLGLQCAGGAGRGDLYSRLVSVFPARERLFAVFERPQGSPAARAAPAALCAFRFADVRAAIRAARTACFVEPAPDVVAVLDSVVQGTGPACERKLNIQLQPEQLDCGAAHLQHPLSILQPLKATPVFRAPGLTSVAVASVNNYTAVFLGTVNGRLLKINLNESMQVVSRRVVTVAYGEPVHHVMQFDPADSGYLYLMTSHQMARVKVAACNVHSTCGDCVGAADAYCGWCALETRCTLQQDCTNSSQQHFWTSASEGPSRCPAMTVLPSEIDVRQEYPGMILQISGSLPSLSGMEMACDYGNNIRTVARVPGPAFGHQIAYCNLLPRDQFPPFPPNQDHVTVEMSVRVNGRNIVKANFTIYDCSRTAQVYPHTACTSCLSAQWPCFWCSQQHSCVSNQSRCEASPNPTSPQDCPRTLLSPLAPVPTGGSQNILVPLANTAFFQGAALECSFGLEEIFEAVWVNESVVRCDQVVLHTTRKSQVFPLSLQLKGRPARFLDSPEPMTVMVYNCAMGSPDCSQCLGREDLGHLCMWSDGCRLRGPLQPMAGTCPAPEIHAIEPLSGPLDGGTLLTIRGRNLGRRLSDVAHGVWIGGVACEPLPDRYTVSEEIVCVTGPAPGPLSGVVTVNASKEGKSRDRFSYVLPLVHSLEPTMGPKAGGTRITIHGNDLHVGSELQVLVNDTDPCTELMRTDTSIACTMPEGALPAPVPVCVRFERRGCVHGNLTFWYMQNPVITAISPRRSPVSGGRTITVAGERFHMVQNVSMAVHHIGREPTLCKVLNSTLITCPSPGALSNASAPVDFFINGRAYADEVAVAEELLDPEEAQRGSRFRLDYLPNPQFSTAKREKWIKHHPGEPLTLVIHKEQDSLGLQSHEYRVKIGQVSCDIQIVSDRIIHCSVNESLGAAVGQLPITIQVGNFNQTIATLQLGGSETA

Plexin B1 (Homo sapiens) [3] = biological target: Plexin B1 (Homo sapiens) (UniProt O43157); assay: cell-based ELISA; conditions: cited from earlier work
[4] = biological target: soluble recombinant human Sema4A (GST- or Fc-tagged, as used in Figures 2 and 3) (human) (UniProt Q9H3S1); assay: ELISA; reverse LRA ELISA; Sema4 (2 ug/mL) coated on Immulon 2 plates overnight at 4 C in 0.1 M sodium carbonate-bicarbonate buffer, rhPlexin B1 in solution in varying doses from 10 ug/mL
[5] = biological target: T1, recombinant human Plexin B1 with a 6X His tag at C-terminus (human, UniProt O43157 20-1490); assay: ELISA; direct LRA ELISA; Plexin B1-His (10 ug/mL) captured on HIS-Select nickel-coated microplates in Tris buffer overnight, Sema4 in solution in varying doses from 2 ug/mL; conditions: both partners purified
T1 construct: Plexin B1, human; Only the molecular weight (66 kDa) is printed; it must be a fragment of the extracellular part, limits unknown; also called rhPlexin B1; rhPlexin B1-His; source: bought: GenScript; not shown: His6, C-terminal, kept
T1 sequence (looked up): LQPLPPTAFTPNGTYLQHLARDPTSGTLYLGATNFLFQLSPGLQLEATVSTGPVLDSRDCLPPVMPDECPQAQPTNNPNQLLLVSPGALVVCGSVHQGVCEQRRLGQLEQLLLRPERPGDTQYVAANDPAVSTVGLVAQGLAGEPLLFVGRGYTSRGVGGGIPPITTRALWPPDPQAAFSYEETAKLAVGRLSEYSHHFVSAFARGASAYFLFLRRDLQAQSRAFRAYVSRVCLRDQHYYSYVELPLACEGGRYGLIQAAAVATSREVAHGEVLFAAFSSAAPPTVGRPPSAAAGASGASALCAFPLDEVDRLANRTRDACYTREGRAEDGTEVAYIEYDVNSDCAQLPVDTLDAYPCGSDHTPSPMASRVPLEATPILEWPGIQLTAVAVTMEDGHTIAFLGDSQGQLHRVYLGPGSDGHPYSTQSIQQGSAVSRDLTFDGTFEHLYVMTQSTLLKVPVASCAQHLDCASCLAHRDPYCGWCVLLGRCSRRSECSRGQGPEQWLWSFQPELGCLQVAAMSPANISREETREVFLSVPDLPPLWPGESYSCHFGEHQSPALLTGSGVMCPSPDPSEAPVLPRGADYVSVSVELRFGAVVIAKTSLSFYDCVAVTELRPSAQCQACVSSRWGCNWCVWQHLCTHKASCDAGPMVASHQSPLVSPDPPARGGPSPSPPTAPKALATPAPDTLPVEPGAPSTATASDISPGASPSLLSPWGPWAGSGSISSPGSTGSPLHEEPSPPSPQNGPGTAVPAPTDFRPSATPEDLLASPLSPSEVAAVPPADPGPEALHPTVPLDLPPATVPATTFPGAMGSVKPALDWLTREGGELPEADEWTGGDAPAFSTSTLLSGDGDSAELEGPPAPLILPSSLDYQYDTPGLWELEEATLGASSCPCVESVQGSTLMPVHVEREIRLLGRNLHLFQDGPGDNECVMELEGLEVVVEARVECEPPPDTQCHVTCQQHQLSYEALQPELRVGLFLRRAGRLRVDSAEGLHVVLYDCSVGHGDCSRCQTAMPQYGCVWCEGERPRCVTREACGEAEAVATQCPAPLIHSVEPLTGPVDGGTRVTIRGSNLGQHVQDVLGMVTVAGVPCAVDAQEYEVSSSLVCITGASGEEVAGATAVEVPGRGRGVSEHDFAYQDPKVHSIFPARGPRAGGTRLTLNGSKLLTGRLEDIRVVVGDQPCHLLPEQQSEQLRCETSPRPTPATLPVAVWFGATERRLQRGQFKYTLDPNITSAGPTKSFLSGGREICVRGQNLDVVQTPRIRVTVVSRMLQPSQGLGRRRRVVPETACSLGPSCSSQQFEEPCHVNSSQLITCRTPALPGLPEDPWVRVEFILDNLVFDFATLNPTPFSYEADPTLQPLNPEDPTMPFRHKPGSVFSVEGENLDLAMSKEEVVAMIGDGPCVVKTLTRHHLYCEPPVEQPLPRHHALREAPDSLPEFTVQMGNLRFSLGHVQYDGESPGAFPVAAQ

[6] = biological target: T1, recombinant human Plexin B1 with a 6X …; assay: ELISA; reverse LRA ELISA; Sema4 (2 ug/mL) coated on Immulon 2 plates overnight at 4 C in 0.1 M sodium carbonate-bicarbonate buffer, rhPlexin B1 in solution in varying doses from 10 ug/mL; conditions: both partners purified

Molecule: Sema4D Sema domain (from UniProt Q92854)
Kd (Plexin B1 (Homo sapiens) [1]): 5500 µM

Molecule: soluble recombinant human Sema4A (GST- or Fc-tagged, as used in Figures 2 and 3) (from UniProt Q9H3S1 33-683) (ligand)
Kd (NRP1): 0.0283 µM
Kd [2]: 0.0199 µM

Molecule: Sema4A (from UniProt Q9H3S1)
Kd (Plexin D1): 0.00872 µM

Molecule: Sema4D (from UniProt Q92854)
Kd (Plexin B1 (Homo sapiens) [3]): 0.0009 µM

Kd [4]: 0.0354 µM
B1: recombinant human Plexin B1 with a 6X His tag at C-terminus (receptor)
chain: T1 sequence (looked up)

Kd [5]: 0.00255 µM
Kd [6]: 0.0025 µM
B2: WT rhSema4A-Fc (GenScript) (Fc fusion, human, UniProt Q9H3S1 33-683, looked up)
chain: GGGQGPMPRVRYYAGDERRALSFFHQKGLQDFDTLLLSGDGNTLYVGAREAILALDIQDPGVPRLKNMIPWPASDRKKSECAFKKKSNETQCFNFIRVLVSYNVTHLYTCGTFAFSPACTFIELQDSYLLPISEDKVMEGKGQSPFDPAHKHTAVLVDGMLYSGTMNNFLGSEPILMRTLGSQPVLKTDNFLRWLHHDASFVAAIPSTQVVYFFFEETASEFDFFERLHTSRVARVCKNDVGGEKLLQKKWTTFLKAQLLCTQPGQLPFNVIRHAVLLPADSPTAPHIYAVFTSQWQVGGTRSSAVCAFSLLDIERVFKGKYKELNKETSRWTTYRGPETNPRPGSCSVGPSSDKALTFMKDHFLMDEQVVGTPLLVKSGVEYTRLAVETAQGLDGHSHLVMYLGTTTGSLHKAVVSGDSSAHLVEEIQLFPDPEPVRNLQLAPTQGAVFVGFSGGVWRVPRANCSVYESCVDCVLARDPHCAWDPESRTCCLLSAPNLNSWKQDMERGNPEWACASGPMSRSLRPQSRPQIIKEVLAVPNSILELPCPHLSALASYYWSHGPAAVPEASSTVYNGSLLLIVQDGVGGLYQCWATENGFSYPVISYWVDSQDQTLALDPELAGIPREHVKVPLTRVSGGAALAAQQSYWPH
notes: Semaphorin 4A, human; also called WT Sema4A; WT Sema4A-Fc; source: bought: GenScript

Kd [5]: 0.00419 µM
Kd [6]: 0.0017 µM
B3: M198A rhSema4A-Fc (Fc fusion, human, UniProt Q9H3S1 33-683, looked up)
chain: B2 chain with M166A
notes: Semaphorin 4A, human; as the WT Sema4A-Fc of GenScript with M198A; Similar molecular size as the WT Sema4A-Fc protein prepared similarly; also called Sema4A-M198A; Mu M198A Sema4A; source: prepared by GenScript

Kd [5]: 0.00282 µM
Kd [6]: 0.0035 µM
B4: F223A rhSema4A-Fc (Fc fusion, human, UniProt Q9H3S1 33-683, looked up)
chain: B2 chain with F191A
notes: Semaphorin 4A, human; as the WT Sema4A-Fc of GenScript with F223A; Similar molecular size as the WT Sema4A-Fc protein prepared similarly; also called Sema4A-F223A; Mu F223A Sema4A; source: prepared by GenScript
